Experimental data: the RNAGym collection of RNA variant scans (doi:10.7554/elife.80360)

B1: HDV Ribozyme (parent)
chain: GGCCGGCAUGGUCCCAGCCUCCUCGCUGGCGCCGGCUGGGCAACAUUCCGAGGGGACCGUCCCCUCGGUAAUGGCGAAUGGGACCCA

Variants of: B1
Experiment: self-cleavage, relative activity (ratio to wild type); higher = more cleavage; co-transcriptional

Variant	self-cleavage
GGCCGGCAUGUUCCCAGCCUCCUCGCUGGCGCCGGCUGGGCGACAUUCCGAGGGGACCGUCCCCUCGGUAAUGGCGAAUGGGACCCA	0.0386
GGCCGGCAUGGUCCCAGCCUCCUCGCUGGUGCCGGCUGUGCAACAUUCCGAGGGGACCGUCCCCUCGGUAAUGGCGAAUGGGACCCA	0.0936
GGCCGGCAUGGUCCCAGCCUCCUCGCUGGCGCCGGCUGAGCAACAUUCCGAGGGGACCGUCCCCUCGGUAAUGGCGAAUGGGACCUA	0.513
GGCCCGCAUGGUCCCAGCCUCCUCGCUGGCGCCGGCUGGGCAACAUUCCGAGGGGACCGUCCCUUCGGUAAUGGCGAAUGGGACCCA	0.332
GGCCGGCAUGGUCCCAGCCUCCUCGCUGGCGCCGGCUGGGCAACAUUCCGAAGGGACCGUCCCCUCGGUUAUGGCGAAUGGGACCCA	0.858
GGCCGGCAUGGUCCCAGCCUCCUCGCUGGCGUGGGCUGGGCAACAUUCCGAGGGGACCGUCCCCUCGGUAAUGGCGAAUGGGACCCA	0.117
CGCCGGCAUGGUCCCAGCCUGCUCGCUGGCGCCGGCUGGGCAACAUUCCGAGGGGACCGUCCCCUCGGUAAUGGCGAAUGGGACCCA	0
GGCCGGCAUGGUCCCAGCCUCCUCGCUGGCGCCGGCUGGGCAACAUUCCGAGAGGACUGUCCCCUCGGUAAUGGCGAAUGGGACCCA	0.987
GGCCGGCAUGGUCUCAGCCUCCUCGCUGGCGCCGGCUGGGCAACAUUCCGAGGGGACCGUCCCUUCGGUAAUGGCGAAUGGGACCCA	0.972
GGCCGGCAUGGUCCCAGCCUCCUCGCUGGCGCCUGCUGGGCAACAUUCCGAGGGGACCGUCCCCUCGGUAAUGGCGGAUGGGACCCA	0.086
GGCCGGCAUGGUCCCAGCAUCCUCGCUGGUGCCGGCUGGGCAACAUUCCGAGGGGACCGUCCCCUCGGUAAUGGCGAAUGGGACCCA	0.0623
GGCCGGCAUGGUCCCAGCCUCCGCGCUGGCGCCGGCUGGGCAACAUUCCGAGGGGACCCUCCCCUCGGUAAUGGCGAAUGGGACCCA	0.9
GGCCGGCAUGGUCCCAGCCUCCUCGCUGGCGCCGGCUGGGCAACAUUCCGAGGGGACCUUCACCUCGGUAAUGGCGAAUGGGACCCA	0.831
GGCCGGCAUGGUCCCAGCCUCCUCGCUGGCGCCGGCAGGGCAACAUUCCGAGGGGACCGUCCCCUCGGUAAUAGCGAAUGGGACCCA	0.0346
GGCCGGCAUGGUCCCAGCCACCUCGCUGGCGCCGGCUGGGCAACAUUCCGAGGGGACCGUCCCCUCGGGAAUGGCGAAUGGGACCCA	0.0519
GGCCGGCAUCGUCCCAGCCUCCUCGCUGGCGCCGGCUGGGCAACAUUCCGAGGGGACCGUCCCCUCGGUAAUGCCGAAUGGGACCCA	0.161
GGCCGGCAUGGUCCCAGCCUCCUCGCUGGCGCCGGCUGGGGAACAUUCCGAGGGGACCGUGCCCUCGGUAAUGGCGAAUGGGACCCA	0.875
GGCCGGCAUGGUCCCAGCCUCCUCGCUGGCGCCGGCUGGGCAACAUUCCGAGGGGACCGUCCCCUCGGUUAUGGCGAAUGGGAUCCA	0.627
GGCCGGCAUGGUCCCAGCCUCCUCGCUGGCGCCGGCUGGGCAACAUUCCGAGGGGCCCGUCCCCUCGGUAAUGGCGUAUGGGACCCA	0.437
GGCCGGCAUGGUCCCAGCCUCCUCGCUGGCGCCGGCUGGGGAACAUUCCGAGGGGACCGUCCCCUCGGUAAUGGAGAAUGGGACCCA	0.353
GGCCGGCAUGGUCCCAGCCUCCUCGCUGGCGCCGGCUGGGCAACAUUCCGAGGGCACCGUCCCCUCGGUAAUGGCGAAUGGGACCCG	0.953
GGCCGGCAUGGUCCCAGCCUCCUCGCUGGCGCGGGCUGGGCAAGAUUCCGAGGGGACCGUCCCCUCGGUAAUGGCGAAUGGGACCCA	0.101

Variant	self-cleavage
GGCCGGCAUGGUCCCAGCCUCCUCGCGGGCGCCGGCUGGUCAACAUUCCGAGGGGACCGUCCCCUCGGUAAUGGCGAAUGGGACCCA	0.293
GGCCGGCAUGGUCCCAGCCUCCUCGCUGGCGCCGGCUGGGCAAGAUUCCGAGGGGACCGUCCCCUCGGUAAUGGCGAAUGGGAUCCA	0.53
GGCCGGCAUGGUCCCAGCCUCCUCGCUGGCGCCGGCUGGGCAACAAUCCGGGGGGACCGUCCCCUCGGUAAUGGCGAAUGGGACCCA	0.739
GGCCGGCAUGGUCCCAGCCUCCUCGCUGGCGCCGGCUGGGCAACAUUCCGAGGGGACCGUCCCCACGGUAAUGGCGAAUGGGGCCCA	0.859
GGCCGGCAUGGUCCCAGCCUCCUCGCUGGCGCCGGCUGGGCAACAUUCCGAGGGGACCGUCCCGUCGGUAAUGGCGAAUGGGACGCA	0.872
CGCCGGCAUGGUCCCAGCCUCCUCGCUGGCGCCGGCUGGGAAACAUUCCGAGGGGACCGUCCCCUCGGUAAUGGCGAAUGGGACCCA	0.123
GGCCGGGAUGGUCCCAGCCGCCUCGCUGGCGCCGGCUGGGCAACAUUCCGAGGGGACCGUCCCCUCGGUAAUGGCGAAUGGGACCCA	0.145
CGCCGGCAUGGUCCCAGCCUCCUCGCUGGCGCUGGCUGGGCAACAUUCCGAGGGGACCGUCCCCUCGGUAAUGGCGAAUGGGACCCA	0
GGCCGGCAUGGUCCCAGCCUCCUCGCUGGCGCCGGCUGGGCAACAUGCCGAGGGGACCGUCCCCUCGGUGAUGGCGAAUGGGACCCA	1.01
GGCCGGCAUGGUCCCAGCCUCCUCGCUGGUGCCGGCUGGGCAACAUUCCGAGGGGACCGUCCCCUCGGUAUUGGCGAAUGGGACCCA	0.372
GGCCGGAAUGGUCCCAGCCUCCUCGCUGGCGCCGGCUGGGCAACAUUCCGAGGGGACCGUCCCCUCGGUAAUGGCGAACGGGACCCA	0.128
GGCCGGAAUGGUCCCAGCCUCCUCGCUGGGGCCGGCUGGGCAACAUUCCGAGGGGACCGUCCCCUCGGUAAUGGCGAAUGGGACCCA	0.0791
GGCCGGCAUGGUCCCAGCCUCCUCGCUGGCGCCGGCUGGGCAACAUUCCCAGGGGACCGUCCCCUCGGUAAUGCCGAAUGGGACCCA	0.196
GGCCGGCAUGGUCCCAGCCUCCUCGCUGGCGCCGGCUGGGCAACAUUCUGAGCGGACCGUCCCCUCGGUAAUGGCGAAUGGGACCCA	1.05
GGCCGGCAUGGUCCCAGCCUCCUGGCUGGCGCCGGCUGGGCAACAUUCCGAGGGGACCGUCCCCUCGGUAAUGGCGAAUGGGACCGA	0.112
GGCCGGCAUGGUCCCAGCCUCCUCGCUGGCGGCGGCUGGGCAACAUUCCGAGGGGACCGUCCCCUCGUUAAUGGCGAAUGGGACCCA	0.089
GUCCGGCAUGGUCCCAGCCUCCUCGCUGGCGCCGGCUGGGCAACAUUCCGAGGGGACCAUCCCCUCGGUAAUGGCGAAUGGGACCCA	0.128
GGCCGGCAUGGUCCCAGCCUCCUCGCAGGCGCCGCCUGGGCAACAUUCCGAGGGGACCGUCCCCUCGGUAAUGGCGAAUGGGACCCA	0.201
GGCCGGCAUGGUCCCAUCCUCCUCGCUGGCGCCGGCUGGGCAACAUUCCGAGGGGCCCGUCCCCUCGGUAAUGGCGAAUGGGACCCA	0.415
GGCCGACAUGGUCCCAGUCUCCUCGCUGGCGCCGGCUGGGCAACAUUCCGAGGGGACCGUCCCCUCGGUAAUGGCGAAUGGGACCCA	0.148
GGCCGGCAUGGUCCCAGCCUCCUCGCUGGCGCCGGCUGGGCAACAUUCUGAGGGGACCGUCCCCUCGGUAAUGGCGAAUGGAACCCA	0.436
GGCCGGCAUGGUCCCAGCCUCCUCACUGGCGCCGGCUGGGCACCAUUCCGAGGGGACCGUCCCCUCGGUAAUGGCGAAUGGGACCCA	0

Variant	self-cleavage
GGCCGGCAUGGUCCCUGCCUCCUCGCUGGCGCCGGCUGGGCAACAUUCCGAGGGGACCGUCCCCUCGGUAAUGGCGAAUGGGCCCCA	0.575
GGCCGGCAUGGUCCCAGCAUCCUCGCUGGCGCCGGCUGGGCAGCAUUCCGAGGGGACCGUCCCCUCGGUAAUGGCGAAUGGGACCCA	0.0354
GGCCGGCAUGGUCCUAGCCUCCUCGCUGGCGCCGGCUGGGCAACAUUCCCAGGGGACCGUCCCCUCGGUAAUGGCGAAUGGGACCCA	0.831
GGCCGGCAUGGUCCCAACCUCCUCGCUGGCGCCGGCUGGGCAACAUUCCGAGGGGACCGUCCCCUCGGUAAUGGCGAAUGGUACCCA	0.346
GGCCGGCAUGGUCCCAGCCUCCUCGCUCGCGCCGGCUGGGCAACAUUCCGAGCGGACCGUCCCCUCGGUAAUGGCGAAUGGGACCCA	0
GGCCGGCAUGCUCCCAGCCUCCUCGCUGGCGCCGGCUGGGCAACAUCCCGAGGGGACCGUCCCCUCGGUAAUGGCGAAUGGGACCCA	0.453
GGUCGGCAUGGUCCCAGCCUCCUCGCUGGCGCCGGCUGGGCAACAUUCCGAGGGGACCGUCCCCUCGGUACUGGCGAAUGGGACCCA	0.427
GGCCGGCAUGGUCCCAGCCUACUCGCUGGCGCCGGCUGGGCAACAUUCCGAGGGGACCGUCUCCUCGGUAAUGGCGAAUGGGACCCA	0.0519
GGCCGGCAUGGUCCCAGCCUCCUCGCUGUCGCCGGCUGGGCAACAUUCCGAGGGGACCGUCCCCUCCGUAAUGGCGAAUGGGACCCA	0.136
GGCCGGCAUGGUCCCAGCCUCCUCGCUGGCGCCGUCUGGGCAACAUUCCGAGGGGACCGUCCCCUCGGUAAGGGCGAAUGGGACCCA	0.151
GGCCCGCAUGGUCCCAGCCUCCUCGCUGGCGCUGGCUGGGCAACAUUCCGAGGGGACCGUCCCCUCGGUAAUGGCGAAUGGGACCCA	0.386
GGACGGCAUGGUCACAGCCUCCUCGCUGGCGCCGGCUGGGCAACAUUCCGAGGGGACCGUCCCCUCGGUAAUGGCGAAUGGGACCCA	0.313
GGCCGGCAUGGUCCCAGCCUCCUCGCUGGCGUCGGCUGGGCAACAUUCCGAGGGGACCGUUCCCUCGGUAAUGGCGAAUGGGACCCA	0.817
GGCCGGCAUGGUCCCAGCCUCCUCGCUAACGCCGGCUGGGCAACAUUCCGAGGGGACCGUCCCCUCGGUAAUGGCGAAUGGGACCCA	0.0978
GGCCGGCAUGGUCCCAGCCUCCUCGCUGGCGCCGGCUGGGCAACAUUCCGAGGGGACCGUCCCCUCGGUAAUGGCGACUGGGAUCCA	0.196
GGCCGGCAUGGUCCCAGCCUCCUCGCUGGCGCCGGCUGGGCGACAUUCCGAGGGGACCGUCCCCUCGGUAAUUGCGAAUGGGACCCA	0.147
GGCCGGUAUGGUCCCAGCCUCCUCGCUGGCGCCGGCUGGGCAACAUUCCGAGGGGACCGUCCCCUCCGUAAUGGCGAAUGGGACCCA	0.529
GGUCGGCAUGGUCCCAGCCUCCUCGCUGGCGCCGGCUGGGCAACAUUCCGAGGGGACCGUCCCCUCGGUAAAGGCGAAUGGGACCCA	0.684
GGCCGGCAUGGUCCUAGCCUCCUCGCUGGCGCCGGCUGGGCAACAUUCCGAGGGGACCGUCCCCUCGCUAAUGGCGAAUGGGACCCA	0.597
GGCCGGCAUGGUCCCAGCCUCCUCGCUGGCGCCGGCUGGGCAACAUUCCGAUGGGACCGUCCCCUCGGUAAUGGCUAAUGGGACCCA	1.05
